Test results reported in patent US20080305188A9, “Composition and method for supporting cancer treatments” (priority 2003, published 2008).
Read-outs that look alike come from different tables or passages of the source. Marks after values point to notes of the source that are not given here.

Columns and labels:
[1] = test system: BALB/c mice injected with 5-Fu; test: Blood cell counts in mice given 5-Fu (reduction of bone marrow suppression); format: in vivo
[2] = Body weight of mice given 5-Fu; format: in vivo
[3] = Pharmacokinetics study of intravenous injection of matrine or oxymatrine with addition of geranium oil (HPLC peak areas); conditions: with addition of geranium oil versus compound alone
[4] = in vivo, iv
white blood cells = conditions: taken orally; previously published animal experiments and clinical trials; cited from earlier work
[5] = Day 10, 5-Fu 135 mg/kg IP single dose only
[6] = Day 14, 5-Fu 135 mg/kg IP single dose only
[7] = Day 10, 135 μg/mouse G-CSF and 5-Fu
[8] = Day 14, 135 μg/mouse G-CSF and 5-Fu

Molecule: O=c1[nH]cc(F)c(=O)[nH]1 [5-Fu, 5-Fluorouracil, reference compound]
- GR (granulocytes) count [1, 5]: 0.25 ± 0.050 10^3/μl
- LY (lymphocytes) count [1, 5]: 3.66 ± 0.648 10^3/μl
- MO (monocytes) count [1, 5]: 0.25 ± 0.046 10^3/μl
- PLT (platelets) count [1, 5]: 2828 ± 632.4 10^3/μl
- RBC (erythrocytes) count [1, 5]: 7.86 ± 0.171 10^6/μl
- WBC (total leukocytes) count [1, 5]: 4.17±0.677 10^3/μl
- GR (granulocytes) count [1, 6]: 1.65 ± 0.756 10^3/μl
- LY (lymphocytes) count [1, 6]: 5.75 ± 0.880 10^3/μl
- MO (monocytes) count [1, 6]: 0.59 ± 0.316 10^3/μl
- PLT (platelets) count [1, 6]: 2219 ± 750.2 10^3/μl
- RBC (erythrocytes) count [1, 6]: 8.09 ± 0.331 10^6/μl
- WBC (total leukocytes) count [1, 6]: 7.98 ± 1.575 10^3/μl
- weight of mice ([2]; Day 0, 5-Fu only group, in g): 22.0 ± 0.93
- weight of mice ([2]; Day 10, 5-Fu only group): 22.3 ± 1.53 g
- weight of mice ([2]; Day 14, 5-Fu only group, in g): 23.5 ± 0.78
- weight of mice ([2]; Day -2, 5-Fu only group, in g): 20.7 ± 0.90

Molecule: O=C1CCC[C@@H]2[C@H]3CCCN4CCC[C@@H](CN12)[C@@H]34 [matrine]
- absorption and metabolism of the compound (changes in HPLC peak areas over time) [3]: increase the absorption and metabolism

Molecule: O=C1CCC[C@@H]2[C@H]3CCC[N+]4([O-])CCC[C@@H](CN12)[C@@H]34 (stereo partly shown) [oxymatrine]
- absorption and metabolism of the compound (changes in HPLC peak areas over time) [4]: increase the absorption and metabolism
- effect on increasing white blood cells (white blood cells): does not show any effect on increasing white blood cells

B1: G-CSF/5-Fu: granulocyte colony-stimulating factor, comparison treatment given with 5-Fu (protein, UniProt P09919 31-207, looked up)
Granulocyte …: TPLGPASSLPQSFLLKCLEQVRKIQGDGAALQEKLVSECATYKLCHPEELVLLGHSLGIPWAPLSSCPSQALQLAGCLSQLHSGLFLYQGLLQALEGISPELGPTLDTLQLDVADFATTIWQQMEELGMAPALQPTQGAMPAFASAFQRRAGGVLVASHLQSFLEVSYRVLRHLAQP
- GR (granulocytes) count [1, 7]: 0.71 ± 0.268** 10^3/μl
- LY (lymphocytes) count [1, 7]: 5.01 ± 1.372* 10^3/μl
- MO (monocytes) count [1, 7]: 0.38 ± 0.141* 10^3/μl
- PLT (platelets) count [1, 7]: 2303 ± 491.7 10^3/μl
- RBC (erythrocytes) count [1, 7]: 7.82 ± 0.424 10^6/μl
- WBC (total leukocytes) count [1, 7]: 5.46±2.338 10^3/μl
- bone marrow suppression effect (WBC) relative to that of 5-Fu only [1, 7]: 51%
- suppression effect with respect to granulocytes relative to 5-Fu only [1, 7]: 54%
- suppression effect with respect to lymphocytes relative to 5-Fu only [1, 7]: 18%
- suppression effect with respect to monocytes relative to 5-Fu only [1, 7]: 7%
- WBC (total leukocytes) count ([1]; Day 10, 135 μg/mouse G-CSF and 5-Fu, listed as C-GSF/5-Fu): 5.46 ± 2.338 10^3/μl
- GR (granulocytes) count [1, 8]: 1.64 ± 0.405 10^3/μl
- LY (lymphocytes) count [1, 8]: 6.12 ± 1.164 10^3/μl
- MO (monocytes) count [1, 8]: 0.58 ± 0.266 10^3/μl
- PLT (platelets) count [1, 8]: 2105 ± 378.1 10^3/μl
- RBC (erythrocytes) count [1, 8]: 8.02 ± 0.340 10^6/μl
- WBC (total leukocytes) count [1, 8]: 8.34 ± 1.454 10^3/μl
- total leukocyte count and lymphocyte count (only these) versus 5-Fu only [1, 8]: continued to increase to a higher level than that of mice treated with 5-Fu only
- weight of mice ([2]; Day 0, G-CSF and 5-Fu, in g): 22.0 ± 1.84
- weight of mice ([2]; Day 14, G-CSF and 5-Fu, in g): 24.0 ± 1.64
- weight of mice ([2]; Day -2, G-CSF and 5-Fu, in g): 20.5 ± 1.76
